The text below walks through data of patent US20260116968A1 (CELLDEX THERAPEUTICS, published 2026).

In assay [1] the target is T1, human CD40 expressed on the cell surface (Raji cells, Ramos cells, human PBMC B cells, luciferase reporter … (human, UniProt P25942 21-277)).
T1 construct: also called CD40 on cells expressing human CD40
Description: flow cytometry on Raji and Ramos cells. The protocol:
Antibodies from Example 1 were tested for binding to human cell lines expressing human CD40 on their surface. […] After 20 minutes, the cells were washed with PBS containing 0.1% BSA and 0.05% NaN3 (PBA) and the bound antibodies were detected by incubating the cells with a PE labeled goat anti-human IgG Fc-specific probe. The excess probe was washed from the cells with PBA and the cell associated fluorescence was determined by analysis using a FACSCanto II™ instrument (BD Biosciences, NJ, USA) according to the manufacturer's directions.
For orientation: Flow cytometry measures light scatter and fluorescence of single cells or particles in a stream.

In assay [2] the target is T2, kappa-sCD40(1-94)-Flag mutant fragment B (multiple mutations of residues 13-15) (human, UniProt P25942 21-114).
T2 construct: also called B (13-15); not shown: The N-terminal human kappa light chain and the C-terminal Flag tag
T2 chain: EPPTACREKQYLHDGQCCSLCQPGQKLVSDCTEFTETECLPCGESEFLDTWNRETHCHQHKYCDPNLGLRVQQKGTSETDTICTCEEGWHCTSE
Description: ELISA, kappa-sCD40-Flag captured by anti-Flag, anti-human IgG Fc-HRP detection. The procedure:
(§1) 1 μg/ml of purified kappa-sCD40-Flag fusion proteins or CHO cell supernatants containing the sCD40 fusion proteins were captured to microtiter plates that were pre-coated with 5 μg/ml mouse anti-Flag antibody (Sigma) in PBS and blocked with 5% bovine serum albumin in PBS. Following incubation with the CD40 antibody, the microplates were washed with PBS/Tween, and incubated with a goat anti-human IgG Fc polyclonal reagent conjugated to horseradish peroxidase. After washing, the plates were developed with HRP substrate, and analyzed at OD 450-650 using a microtiter plate reader. An ELISA with a goat anti-human IgG Fab2-HRP to measure kappa chain binding was carried out in parallel to validate the sCD40 fusion protein expression from different transfections.

Assay [3] concerns the target T3, kappa-sCD40(1-94)-Flag mutant fragment C (multiple mutations of residues 25, 26, 28 and 30) (human, UniProt P25942 21-114).
T3 construct: also called C (25, 26, 28, 30); not shown: The N-terminal human kappa light chain and the C-terminal Flag tag
T3 chain: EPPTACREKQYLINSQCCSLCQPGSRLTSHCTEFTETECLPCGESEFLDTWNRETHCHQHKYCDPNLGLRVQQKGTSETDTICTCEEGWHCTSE
Described as above. The procedure: as §1

Assay [4] addresses T2, kappa-sCD40(1-94)-Flag mutant fragment …. Description: ELISA, kappa-sCD40-Flag (~2 ug/ml) captured by anti-Flag, anti-human IgG Fc-HRP detection. The protocol: as §1, with “containing” for “1 μg/ml of purified kappa-sCD40-Flag fusion proteins or CHO cell supernatants containing”
Background: In an ELISA, binding on a coated surface is turned into a signal by an enzyme label.

For assay [5], the target named is T3, kappa-sCD40(1-94)-Flag mutant fragment …. The description is as above. The protocol:
as §1, with “containing” for “1 μg/ml of purified kappa-sCD40-Flag fusion proteins or CHO cell supernatants containing”

T1 sequence (P25942 21-277 limits assumed): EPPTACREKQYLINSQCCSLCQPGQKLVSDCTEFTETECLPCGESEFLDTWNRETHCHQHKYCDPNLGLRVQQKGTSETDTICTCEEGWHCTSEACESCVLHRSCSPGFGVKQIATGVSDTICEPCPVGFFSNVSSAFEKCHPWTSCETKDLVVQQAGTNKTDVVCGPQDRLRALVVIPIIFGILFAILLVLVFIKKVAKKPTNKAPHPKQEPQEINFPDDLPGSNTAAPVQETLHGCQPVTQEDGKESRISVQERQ

B1: anti-CD40 human monoclonal antibody 1B4 (antibody, human IgG2, V domains shown)
VH: EVQLLESGGGLVQPGGSLRLSCAASGFTFSSYAMTWVRQVPGKGLEWVSGITGSGANTFYTDSVKGRFTISRDNSNNSLYLQMNSLRADDTAVYYCAKRNGGSYYYYYGMDVWGQGTTVTVSS
VL: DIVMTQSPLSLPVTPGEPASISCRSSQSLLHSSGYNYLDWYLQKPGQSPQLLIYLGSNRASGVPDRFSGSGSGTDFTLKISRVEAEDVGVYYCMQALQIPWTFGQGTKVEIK
notes: Human IgG2
With B1, the binding result in assay [1] was “binds”.

B2: anti-CD40 human monoclonal antibody 6H6 (antibody, human IgG2, V domains shown)
VH: QVQLVESGGGVVQPGRSLRFSCAASGFTLSSYGMHWVRQAPGKGLEWVAVIWDDGSNKYYADSVKGRFTISRDNSKNTLYLQMNSLRAEDTAVYYCARAGGSGRYYNYFDYWGQGTLVTVSS
VL: EIVMTQSPATLSVSPGERATLSCRASQSVRSNLAWYQQKPGQAPRLLIYGASTRATGIPARFSGSGSGTDFTLTISSLQSEDFAVYYCQQHNNWLTFGGGTKVEIK
notes: Human IgG2
Take B2: in assay [1], the binding result is “binds”.

B3: anti-CD40 human monoclonal antibody 3C3 (antibody, human IgG2, kappa, V domains shown)
VH: QVQLVESGGGVVQPGRSLRLSCAGSGFIFSRYGMYWVRQAPGKGLEWVAVIWYDGSYKYYADSVKGRFTISRDNSKNTLYLQMNSLRAEDTAVYYCARESPWYYFDYWGQGTLVTVSS
VL: DIQMTQSPSSLSASVGDRVTITCRASQGISNYLAWYQQKPGKVPKLLIYAASTLQSGVPSRFSGSGSGTDFTLTISSLQPEDVATYYCQKYKSAPFTFGPGTKVDIKR
notes: Full chains with leader removed; human IgG2 constant domain with C-terminal lysine removed; also called anti-CD40 mAb 3C3; CD40 antibody 3C3
Regarding B3, the “Average OD” value was found to be 2.03 OD 450-650 in assay [2] and 1.49 OD 450-650 in assay [3]. Besides, the OD in assay [4] was determined as 2.38 OD 450-650; in assay [5], 2.02 OD 450-650.

B4: anti-CD40 human monoclonal antibody 3B6 (antibody, human IgG2, V domains shown)
VH: EVQLLESGGGLVQPGGSLRLSCAASGFTFSSYAMSWVRQAPGKGLEWVSGITGTGGSTYYADSVKGRFTISRDNSKNTLYVQMNSLRAEDTAVYYCAKRAGGSFYYYYGMDVWGQGTTVTVSS
VL: DIVMTQSPLSLPVTPGEPASISCRSSQSLLHSTGYNYLDWYLQKPGQSPQLLIYLGSNRASGVPDRFNGSGSGTDFTLKISRVEAEDFGVYYCMQALQTPWTFGHGTKVEIK
notes: Human IgG2
On to B4, for which, in assay [1], the binding result is given as “binds”.
